From patent US11072647B2, “TGF-receptor II isoform, fusion peptide, methods of treatment and methods in vitro” (Onsejo Nacional DE Investigation Cientiticay Tecnica, priority 2013, dated 2021)

System: CPFX-treated juvenile rats
Conditions: rat, in vivo
Experimental: Thus, the effect of the TβII-SE isoform was analyzed either in CPFX-treated juvenile rats (24 days old) or untreated rats, by intra-articular injections of lentiviral vectors encoding a recombinant protein of the codon-optimized (co) TβRII-SE fused to the constant fragment (Fc) of the human immunoglobulin 1 (IgG1) (Lt.coTβRII-SE/Fc) or the enhanced green fluorescent protein (Lt.eGFP).
Male 24-day-old Wistar rats were housed under controlled conditions at 21±1° C. with 50%±5% relative humidity and a constant light-dark schedule (light, 8 a.m. to 8 p.m.). Food and tap water was provided ad libitum. The rats received ciprofloxacin hydrochloride on day 24 by oral administration of 200 mg/kg of body weight during 10 days. The animals were examined for clinical abnormalities including motility alterations and weighted during the treatment period.
On day 14 after ciprofloxacin treatment, 50 μl viral vectors were injected intra-articularly with either Lt.coTBRII-SE/Fc (2.35×10^6 transducing Units, TU) or Lt.eGFP (6×10^6 TU). Control animals without ciprofloxacin were treated in the same manner.

coTβRII-SE/Fc: fusion peptide of codon-optimized TβRII-SE and the human IgG1 Fc region, SEQ ID No. 6
X-ray images of knees: radiolucent images with irregular borders in the femoral condyle
